Kd data for four sequences are collected here from the Immune Epitope Database (IEDB).

Experiment [1] deals with HLA-C*14:02. Nature of the experiment: IEDB peptide-MHC binding, purified MHC/competitive/fluorescence; filed as Kd, often an IC50 or EC50 that approximates it; ≥ and ≤ were set here for values at or beyond the usual limits of such assays. To be noted: source organism: Yersinia pestis Nepal516.
A further experiment addresses HLA-A*32:07. The description is as above.
In the next experiment the target is HLA-B*40:13. Described as above.
In the next experiment the target is HLA-A*68:23. The description is as above.
For the next experiment, the target named is HLA-B*58:01. Described as above. Particulars: source organism: Yersinia pestis Nepal516.
Another experiment has as its target HLA-B*83:01. The description is as above.
The next experiment deals with HLA-B*45:06. The experiment is described as above.
A further experiment has as its target HLA-B*15:42. Described as above.
The target of another experiment is HLA-A*32:15. The experiment is described as above.
Experiment [2] concerns the target HLA-A*69:01. Nature of the experiment: IEDB peptide-MHC binding, purified MHC/direct/fluorescence; filed as Kd, often an IC50 or EC50 that approximates it; ≥ and ≤ were set here for values at or beyond the usual limits of such assays. Particulars: source organism: Entamoeba histolytica HM-1:IMSS.
Experiment [3] concerns the target HLA-C*14:02. Described as above.
Another experiment concerns the target HLA-C*15:02. The description is as above. Particulars: source organism: Entamoeba histolytica HM-1:IMSS.
The target of experiment [4] is HLA-A*02:01. The experiment is described as above. Particulars: source organism: Entamoeba histolytica HM-1:IMSS.
A further experiment addresses HLA-C*06:02. The experiment is described as above. Particulars: source organism: Entamoeba histolytica HM-1:IMSS.
Another experiment addresses HLA-A*02:12. The experiment is described as above. Particulars: source organism: Zaire ebolavirus.
The target in the next experiment is HLA-A*02:16. The experiment is described as above. Particulars: source organism: Zaire ebolavirus.
A further experiment addresses HLA-A*02:03. Described as above. Particulars: source organism: Zaire ebolavirus.
A further experiment addresses HLA-A*02:19. The description is as above. Particulars: source organism: Zaire ebolavirus.
The target of the next experiment is HLA-A*68:02. The experiment is described as above. To be noted: source organism: Zaire ebolavirus.
The target of a further experiment is HLA-B*15:01. The description is as above. To be noted: source organism: Ebola virus - Gabon (1994-1997).
Experiment [5] deals with HLA-A*69:01. The experiment can be described thus: IEDB peptide-MHC binding, purified MHC/competitive/fluorescence; filed as Kd, often an IC50 or EC50 that approximates it; ≥ and ≤ were set here for values at or beyond the usual limits of such assays. To be noted: source organism: Zaire ebolavirus.
For the next experiment, the target named is HLA-B*27:03. The experiment is described as above. To be noted: source organism: Zaire ebolavirus.
The target in a further experiment is HLA-B*39:01. The experiment is described as above. Particulars: source organism: Zaire ebolavirus.
The target of experiment [6] is HLA-A*02:01. The description is as above. To be noted: source organism: Zaire ebolavirus.
A further experiment deals with HLA-B*35:01. The experiment is described as above.
For the next experiment, the target named is HLA-A*26:01. Described as above. Particulars: source organism: Zaire ebolavirus.
A further experiment concerns the target HLA-C*05:01. The experiment can be described thus: IEDB peptide-MHC binding, purified MHC/direct/fluorescence; filed as Kd, often an IC50 or EC50 that approximates it; ≥ and ≤ were set here for values at or beyond the usual limits of such assays. Particulars: source organism: Salmonella enterica subsp. enterica serovar Typhi str. CT18.
The next experiment deals with HLA-B*08:01. Nature of the experiment: IEDB peptide-MHC binding, purified MHC/competitive/fluorescence; filed as Kd, often an IC50 or EC50 that approximates it; ≥ and ≤ were set here for values at or beyond the usual limits of such assays. Particulars: source organism: Salmonella enterica subsp. enterica serovar Typhi.
The target in another experiment is HLA-B*51:01. The experiment is described as above. To be noted: source organism: Salmonella enterica subsp. enterica serovar Typhi.
The mark [7] stands for this setting: source organism: Yersinia pestis Nepal516.
The mark [8] stands for this setting: source organism: Entamoeba histolytica HM-1:IMSS.
The mark [9] stands for this setting: source organism: Zaire ebolavirus.
Where [10] appears, read: source organism: Salmonella enterica subsp. enterica serovar Typhi.

Take YSLMSRYQF: the Kd with HLA-C*14:02 [1] is 43 nM; with HLA-A*32:07 (setting [7]), 25.8 nM; with HLA-B*40:13 (setting [7]), 13.2 nM; with HLA-A*68:23 (setting [7]), 29.5 nM; with HLA-B*58:01, 16.2 nM; in the experiment with HLA-B*83:01 (setting [7]), ≥ 5000 nM. Also, the Kd with HLA-B*45:06 (setting [7]) is ≥ 5000 nM; in the experiment with HLA-B*15:42 (setting [7]) it was ≥ 5000 nM; in the experiment with HLA-A*32:15 (setting [7]) it was 58.2 nM.
On to SMFERDFHF, for which the Kd with HLA-A*69:01 [2] was ≥ 5000 nM; in the experiment with HLA-C*14:02 [3] (setting [8]), 3270 nM; with HLA-C*15:02, ≥ 20000 nM; with HLA-A*02:01 [4], 4 nM; with HLA-C*06:02, 1720 nM; with HLA-A*32:07 (setting [8]), 9.3 nM. Besides, the equilibrium dissociation constant (Kd) in the experiment with HLA-B*40:13 (setting [8]) is 2.8 nM; with HLA-B*83:01 (setting [8]), ≥ 5000 nM; with HLA-B*45:06 (setting [8]) it was ≥ 5000 nM; with HLA-B*15:42 (setting [8]), ≥ 5000 nM; with HLA-A*32:15 (setting [8]) it was 31.6 nM.
In the case of KVYWAGIEF, the equilibrium dissociation constant (Kd) with HLA-C*14:02 [3] (setting [9]) was 18 nM; with HLA-A*02:12 it was ≥ 20000 nM; in the experiment with HLA-A*02:16, ≥ 20000 nM; with HLA-A*02:03, ≥ 20000 nM; with HLA-A*02:19, ≥ 20000 nM; with HLA-A*68:02, ≥ 20000 nM. Further, the Kd in the experiment with HLA-B*15:01 is 133 nM; with HLA-A*69:01 [5], ≥ 20000 nM; in the experiment with HLA-B*27:03, ≥ 20000 nM; with HLA-B*39:01, ≥ 20000 nM; with HLA-A*02:01 [6] it was ≥ 20000 nM; with HLA-B*35:01 (setting [9]), 114 nM. Moreover, the Kd with HLA-A*26:01 is ≥ 20000 nM.
Take MPFIATPPV: the Kd is ≥ 20000 nM in the experiment with HLA-C*05:01; 2.1 nM with HLA-A*68:23 (setting [10]); 1440 nM with HLA-B*08:01; 62.6 nM with HLA-B*83:01 (setting [10]); ≥ 5000 nM in the experiment with HLA-B*45:06 (setting [10]); ≥ 5000 nM in the experiment with HLA-B*15:42 (setting [10]). In addition, the results for the Kd in the experiment with HLA-B*51:01 and with HLA-B*35:01 (setting [10]) were 567 nM and ≤ 0.1 nM, respectively.
